Assay results taken from the supplement of paper PMC10065799, “High-throughput profiling of sequence recognition by tyrosine kinases and SH2 domains using bacterial peptide display” (eLife, 2023).

How the values were obtained:
SHP2-C SH2 = assay: SH2 binding enrichment of the phosphorylated peptide, bacterial display (enrichment ratio); higher = better substrate or ligand; peptides without Tyr show the background
c-Src SH2 = assay: as above
Grb2 SH2 = Grb2 SH2 (UniProt P62993); assay: as above
MERTK = MERTK (UniProt Q12866); assay: phosphorylation enrichment, bacterial display (enrichment ratio); higher = better substrate or ligand; peptides without Tyr show the background
AncSZ = assay: as above
Fyn = Fyn (UniProt P06241); assay: as above
c-Abl (mouse) = assay: as above
EPHB1 = EPHB1 (UniProt P54762); assay: as above
EPHB2 = EPHB2 (UniProt P29323); assay: as above
Fer (mouse) = assay: as above
FGFR1 = FGFR1 (UniProt P11362); assay: as above
c-Src = assay: as above
FGFR3 = FGFR3 (UniProt P22607); assay: as above
Fes = Fes (UniProt P07332); assay: as above
Hck = Hck (UniProt P08631); assay: as above
Jak2 = Jak2 (UniProt O60674); assay: as above
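For SH2 binding enrichment of the phosphorylated peptide, bacterial display in this document: peptide library displayed on the E. coli surface as eCPX fusions, selected cells deep-sequenced, score is each peptide's frequency after selection divided by its frequency in the input.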
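For phosphorylation enrichment, bacterial display in this document: 11-residue human phosphosite peptides and single-mutation variants displayed on the E. coli surface, counted by deep sequencing, each peptide's frequency after selection divided by its frequency in the unselected input library; frequency after pTyr selection over input frequency; kinase dosed for 20-30% of maximal phosphorylation in three min.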

Chain of EPHB1 (P54762 whole entry, looked up): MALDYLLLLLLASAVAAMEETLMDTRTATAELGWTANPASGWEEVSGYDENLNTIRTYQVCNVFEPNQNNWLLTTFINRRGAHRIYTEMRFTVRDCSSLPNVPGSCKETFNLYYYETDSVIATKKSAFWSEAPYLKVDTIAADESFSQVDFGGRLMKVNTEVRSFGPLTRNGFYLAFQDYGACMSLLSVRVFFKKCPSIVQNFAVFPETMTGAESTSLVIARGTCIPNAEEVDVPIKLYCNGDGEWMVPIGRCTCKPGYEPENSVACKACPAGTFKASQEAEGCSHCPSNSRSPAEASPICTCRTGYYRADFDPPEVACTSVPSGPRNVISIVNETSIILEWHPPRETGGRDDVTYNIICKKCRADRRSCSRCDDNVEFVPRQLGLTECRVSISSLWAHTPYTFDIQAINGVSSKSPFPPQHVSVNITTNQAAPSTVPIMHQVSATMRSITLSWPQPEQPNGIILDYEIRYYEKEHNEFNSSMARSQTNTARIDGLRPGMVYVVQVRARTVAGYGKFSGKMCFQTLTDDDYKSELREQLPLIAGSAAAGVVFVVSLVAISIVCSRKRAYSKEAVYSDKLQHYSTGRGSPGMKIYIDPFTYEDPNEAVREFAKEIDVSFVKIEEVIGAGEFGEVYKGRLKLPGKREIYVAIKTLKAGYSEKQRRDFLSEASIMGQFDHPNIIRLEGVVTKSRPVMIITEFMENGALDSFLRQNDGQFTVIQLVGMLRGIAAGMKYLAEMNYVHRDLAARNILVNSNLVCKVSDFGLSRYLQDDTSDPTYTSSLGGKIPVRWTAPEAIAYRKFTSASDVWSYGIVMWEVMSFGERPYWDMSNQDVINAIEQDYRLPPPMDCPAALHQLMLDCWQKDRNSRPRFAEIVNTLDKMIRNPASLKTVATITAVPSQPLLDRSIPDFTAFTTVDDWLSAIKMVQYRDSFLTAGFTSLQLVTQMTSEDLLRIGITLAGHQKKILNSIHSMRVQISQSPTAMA
Chain of Jak2 (O60674 whole entry, looked up, the tested form may be a part): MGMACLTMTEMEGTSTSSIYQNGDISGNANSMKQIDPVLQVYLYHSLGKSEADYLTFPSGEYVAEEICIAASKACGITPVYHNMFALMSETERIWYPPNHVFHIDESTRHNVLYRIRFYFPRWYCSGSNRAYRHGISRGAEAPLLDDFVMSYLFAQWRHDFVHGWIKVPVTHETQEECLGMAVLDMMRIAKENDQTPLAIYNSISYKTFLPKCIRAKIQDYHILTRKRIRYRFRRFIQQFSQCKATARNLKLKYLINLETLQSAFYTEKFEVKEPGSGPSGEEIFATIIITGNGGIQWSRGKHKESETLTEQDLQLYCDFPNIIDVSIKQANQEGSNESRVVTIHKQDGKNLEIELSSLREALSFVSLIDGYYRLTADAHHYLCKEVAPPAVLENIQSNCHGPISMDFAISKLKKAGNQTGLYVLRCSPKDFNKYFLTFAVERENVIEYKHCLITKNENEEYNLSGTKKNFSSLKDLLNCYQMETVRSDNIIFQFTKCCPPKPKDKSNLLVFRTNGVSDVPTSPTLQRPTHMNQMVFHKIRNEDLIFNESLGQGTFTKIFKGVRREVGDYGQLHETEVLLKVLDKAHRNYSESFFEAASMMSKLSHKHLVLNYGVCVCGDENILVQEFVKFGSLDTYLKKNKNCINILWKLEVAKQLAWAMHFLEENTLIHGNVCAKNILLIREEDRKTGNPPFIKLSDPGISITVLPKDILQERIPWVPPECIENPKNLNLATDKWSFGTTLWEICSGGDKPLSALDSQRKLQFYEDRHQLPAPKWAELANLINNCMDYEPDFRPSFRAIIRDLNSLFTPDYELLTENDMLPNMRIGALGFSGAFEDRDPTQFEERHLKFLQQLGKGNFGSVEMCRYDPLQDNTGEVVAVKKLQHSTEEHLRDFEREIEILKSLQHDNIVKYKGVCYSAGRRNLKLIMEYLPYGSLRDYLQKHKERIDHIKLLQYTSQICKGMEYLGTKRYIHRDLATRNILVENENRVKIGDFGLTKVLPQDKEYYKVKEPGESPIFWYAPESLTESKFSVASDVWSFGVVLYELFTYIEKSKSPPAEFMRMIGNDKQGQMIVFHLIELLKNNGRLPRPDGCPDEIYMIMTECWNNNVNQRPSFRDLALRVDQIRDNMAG
Chain of FGFR1 (P11362 whole entry, looked up): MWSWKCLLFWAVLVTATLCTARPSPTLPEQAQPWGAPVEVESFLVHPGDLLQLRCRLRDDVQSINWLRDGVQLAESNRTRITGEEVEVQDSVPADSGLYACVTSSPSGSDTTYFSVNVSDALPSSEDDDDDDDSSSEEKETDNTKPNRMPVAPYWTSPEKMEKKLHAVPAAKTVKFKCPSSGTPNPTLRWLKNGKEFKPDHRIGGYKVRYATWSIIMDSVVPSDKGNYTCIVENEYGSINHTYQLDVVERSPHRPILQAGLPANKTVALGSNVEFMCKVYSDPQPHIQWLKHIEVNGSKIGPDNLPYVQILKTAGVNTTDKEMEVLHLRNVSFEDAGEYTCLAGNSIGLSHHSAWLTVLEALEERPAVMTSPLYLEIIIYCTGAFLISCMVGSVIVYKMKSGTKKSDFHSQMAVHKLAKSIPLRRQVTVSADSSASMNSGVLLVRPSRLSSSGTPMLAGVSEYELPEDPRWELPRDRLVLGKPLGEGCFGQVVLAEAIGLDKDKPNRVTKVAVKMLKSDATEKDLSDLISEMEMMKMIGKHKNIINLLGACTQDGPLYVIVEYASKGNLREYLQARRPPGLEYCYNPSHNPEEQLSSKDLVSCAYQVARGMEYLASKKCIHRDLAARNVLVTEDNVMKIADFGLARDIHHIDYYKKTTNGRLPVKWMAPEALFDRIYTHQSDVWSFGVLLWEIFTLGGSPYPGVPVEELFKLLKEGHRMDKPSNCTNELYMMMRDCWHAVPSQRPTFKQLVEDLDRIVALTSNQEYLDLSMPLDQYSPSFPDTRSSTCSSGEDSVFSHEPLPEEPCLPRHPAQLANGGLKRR
Chain of EPHB2 (P29323 whole entry, looked up): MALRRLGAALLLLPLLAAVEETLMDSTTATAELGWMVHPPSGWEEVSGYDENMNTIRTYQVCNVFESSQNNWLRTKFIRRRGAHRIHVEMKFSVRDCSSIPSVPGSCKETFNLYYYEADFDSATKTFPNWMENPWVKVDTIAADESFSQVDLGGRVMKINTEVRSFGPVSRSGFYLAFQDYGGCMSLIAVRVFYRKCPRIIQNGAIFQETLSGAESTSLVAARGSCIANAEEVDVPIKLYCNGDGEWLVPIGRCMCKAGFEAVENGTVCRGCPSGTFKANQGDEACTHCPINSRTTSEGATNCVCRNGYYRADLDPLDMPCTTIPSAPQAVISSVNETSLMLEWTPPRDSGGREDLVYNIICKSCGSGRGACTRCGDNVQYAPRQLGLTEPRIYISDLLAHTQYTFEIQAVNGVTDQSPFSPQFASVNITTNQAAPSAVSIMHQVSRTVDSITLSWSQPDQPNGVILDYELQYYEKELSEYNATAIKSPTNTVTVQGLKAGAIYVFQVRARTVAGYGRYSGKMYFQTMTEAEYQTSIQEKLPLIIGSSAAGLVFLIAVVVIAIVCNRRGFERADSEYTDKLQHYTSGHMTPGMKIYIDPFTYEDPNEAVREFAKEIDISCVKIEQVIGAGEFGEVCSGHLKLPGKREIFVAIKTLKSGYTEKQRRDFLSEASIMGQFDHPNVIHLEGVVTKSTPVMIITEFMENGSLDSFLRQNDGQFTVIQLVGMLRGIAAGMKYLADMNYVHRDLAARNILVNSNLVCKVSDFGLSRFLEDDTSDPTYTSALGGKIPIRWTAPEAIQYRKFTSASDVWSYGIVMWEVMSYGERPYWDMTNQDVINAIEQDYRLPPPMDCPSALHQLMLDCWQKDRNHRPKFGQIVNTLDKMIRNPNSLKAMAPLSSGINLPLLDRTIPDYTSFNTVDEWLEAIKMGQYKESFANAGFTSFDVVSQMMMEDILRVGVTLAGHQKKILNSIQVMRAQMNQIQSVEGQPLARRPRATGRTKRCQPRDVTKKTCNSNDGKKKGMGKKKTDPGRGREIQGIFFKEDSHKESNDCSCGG
Chain of Hck (P08631 whole entry, looked up): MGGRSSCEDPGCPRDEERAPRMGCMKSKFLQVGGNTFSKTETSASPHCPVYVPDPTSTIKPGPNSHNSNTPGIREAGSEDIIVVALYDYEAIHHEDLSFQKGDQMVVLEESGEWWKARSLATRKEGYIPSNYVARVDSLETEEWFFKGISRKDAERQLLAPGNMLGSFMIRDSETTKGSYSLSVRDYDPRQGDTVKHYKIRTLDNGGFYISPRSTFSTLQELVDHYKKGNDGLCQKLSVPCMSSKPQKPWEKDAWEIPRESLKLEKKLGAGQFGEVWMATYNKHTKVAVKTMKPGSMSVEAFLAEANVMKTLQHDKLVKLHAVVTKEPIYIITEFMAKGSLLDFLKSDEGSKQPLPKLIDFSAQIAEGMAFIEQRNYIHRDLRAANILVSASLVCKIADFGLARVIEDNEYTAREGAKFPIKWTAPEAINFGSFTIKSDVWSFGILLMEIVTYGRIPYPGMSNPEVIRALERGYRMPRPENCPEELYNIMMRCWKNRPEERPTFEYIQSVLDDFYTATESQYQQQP
Chain of Fyn (P06241 whole entry, looked up): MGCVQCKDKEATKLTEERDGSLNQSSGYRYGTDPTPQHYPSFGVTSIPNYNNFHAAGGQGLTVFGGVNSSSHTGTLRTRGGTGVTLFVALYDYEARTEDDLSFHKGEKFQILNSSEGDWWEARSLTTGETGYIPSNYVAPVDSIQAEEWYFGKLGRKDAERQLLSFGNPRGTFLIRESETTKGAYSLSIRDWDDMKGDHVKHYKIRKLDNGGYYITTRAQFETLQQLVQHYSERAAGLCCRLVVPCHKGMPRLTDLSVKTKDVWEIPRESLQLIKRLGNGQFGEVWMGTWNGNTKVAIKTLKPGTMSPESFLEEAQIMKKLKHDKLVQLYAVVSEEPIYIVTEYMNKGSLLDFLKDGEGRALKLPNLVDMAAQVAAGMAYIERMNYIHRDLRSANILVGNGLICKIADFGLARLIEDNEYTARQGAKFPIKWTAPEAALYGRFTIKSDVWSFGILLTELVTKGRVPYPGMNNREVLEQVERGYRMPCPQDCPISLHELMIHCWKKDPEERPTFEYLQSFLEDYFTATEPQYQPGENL

SH2 binding enrichment (SHP2-C SH2)	SH2 binding enrichment (c-Src SH2)	SH2 binding enrichment (Grb2 SH2)	Sequence	phosphorylation enrichment (MERTK)	phosphorylation enrichment (AncSZ)	phosphorylation enrichment (Fyn)	phosphorylation enrichment (c-Abl (mouse))	phosphorylation enrichment (EPHB1)	phosphorylation enrichment (EPHB2)	phosphorylation enrichment (Fer (mouse))	phosphorylation enrichment (FGFR1)	phosphorylation enrichment (c-Src)	phosphorylation enrichment (FGFR3)	phosphorylation enrichment (Fes)	phosphorylation enrichment (Hck)	phosphorylation enrichment (Jak2)
3.28	1.19	0.981	PFTRNYYVQAV [CYBA_Y87_R90Q]	1.25	1.03	0.46	1.12	0.787	0.706	0.555	1.99	0.615	1.9	1.1	0.446	1.17
1.67	1.22	1.46	LFQAKYQIRYR [CRLF1_Y272]	0.465	1.07	0.477	0.779	0.79	0.517	0.325	0.566	0.531	0.789	1.33	0.763	0.949
0.617	0.438	0.819	DNLNNYVFQGQ [GRIN2A_Y978]	0.657	1.21	0.593	0.815	1.77	1.17	0.514	0.703	0.598	0.789	1.06	0.392	1.01
0.49	0.82	0.739	LPEENYQVLCF [ARHGAP1_Y365_R369C]	3.58	3.61	1.64	3.14	9.13	5.96	7.5	8.04	5.73	5.59	3.56	4.43	5.17
0.883	0.839	0.656	HNLDYYKQTTN [FGFR3_Y648_K650Q]	0.658	0.979	0.714	0.793	0.786	0.536	0.585	3.5	0.476	2.61	1.01	0.704	1.27
0.962	0.646	1.14	GSTLSYFGLAA [P2RX7_Y343]	0.892	0.725	0.571	0.525	0.483	0.621	0.43	1.83	0.629	1.6	1.11	0.63	6.12
0.766	0.438	0.78	NELTYYCCKKD [CD59_Y87]	4.45	1.9	2.92	1.48	0.923	1.17	3.67	7.15	3.91	3.92	1.3	3.04	2.83
0.627	1.29	4.23	LFSNAYLNDLA [ALDH1A1_Y119_YF]	0.807	1.14	1.12	1.14	0.794	0.723	0.688	0.986	1.15	1.25	1.58	1	1.11
0.716	0.829	0.871	IKGIRYLHHQG [GUCY2D_Y656_R660Q]	0.455	0.684	0.378	0.403	0.45	0.387	0.417	0.465	0.428	0.45	0.587	0.401	0.414
0.58	0.401	0.792	PSNTDYPGPHS [TP63_Y171]	0.552	0.809	0.438	1.01	0.589	0.661	0.582	0.511	0.5	0.722	0.909	0.482	0.768
0.838	2.01	0.906	KVPCHYDDPGK [FOXG1_Y246_R244C]	0.412	0.827	0.437	0.707	0.469	0.527	0.86	0.412	0.443	0.598	0.943	0.793	0.717
0.697	0.494	0.705	DSDTDYGSGFP [RNASEH2A_Y206_L202S_YF]	0.455	1.1	0.429	0.755	0.545	0.557	0.492	0.418	0.494	0.605	1.01	0.566	0.905
0.874	0.567	0.61	PIFLFYLMDLS [ITGB2_Y131_D128Y_YF]	0.914	2.78	0.613	1.91	2.51	1.01	1.24	0.702	1.12	1.31	3.28	0.95	3.98
0.752	1.59	0.74	LDPDSYNVFEN [FOXC1_Y159_M161V]	1.04	2.1	0.643	1.93	0.728	0.703	0.742	0.527	0.915	1.31	2.2	0.613	2.3
0.648	0.562	0.876	RSACTYLAPHL [PLK3_Y615_S618P]	1.02	2.67	1.1	6.67	1.88	1.25	0.589	0.691	2.74	0.71	1.02	1.45	1.59
0.607	0.484	0.703	MEYAKYGSLRG [RET_Y809_V804M]	0.436	0.622	1.14	0.474	0.569	0.465	0.431	0.461	1.9	0.458	0.605	1.29	0.536
